# Data taken from patent publication US20240166725A1 (BEIJING WISDOMAB BIOTECHNOLOGY, published 2024).
# Where two headings read alike, the source gives them in different places.
# Columns and labels:
# [1] = target: T1, varicella-zoster virus recombinant protein gH-His/gL (varicella-zoster virus strain Oka, UniProt Q775J3 18-795; Q9J3N1 23-160); test: solid-phase phage display screening on gH-His/gL
# [2] = target: T1, varicella-zoster virus recombinant …; test: competition ELISA on coated gH/gL, scFv phage at fixed concentration, anti-M13 detection
# [3] = target: T2, gH/gL protein of varicella-zoster virus, native, on VZV (Oka) virions and VZV-infected MRC5 cells (varicella-zoster virus (Oka), UniProt Q775J3 18-841); test: cell-based or functional assay
# [4] = target: T1, varicella-zoster virus recombinant …; test: competition ELISA on coated gH/gL; competitor: phage S7A10 (same clone), bound phage detected with HRP-anti-M13
# [5] = target: T2, gH/gL protein of varicella-zoster …; test: cell-based or functional assay; remark: listed apart in the source
# [6] = target: T1, varicella-zoster virus recombinant …; test: competition ELISA on coated gH/gL; competitor: phage S8B8 (same clone), bound phage detected with HRP-anti-M13
# [7] = target: T2, gH/gL protein of varicella-zoster …; test: cell-based or functional assay; remark: listed apart in the source
# [8] = target: T2, gH/gL protein of varicella-zoster …; test: cell-based or functional assay; remark: listed apart in the source
# [9] = target: T1, varicella-zoster virus recombinant …; test: competition ELISA on coated gH/gL; competitor: phage H4H8-L1B7 (same clone), bound phage detected with HRP-anti-M13
# [10] = target: T1, varicella-zoster virus recombinant …; test: competition ELISA on coated gH/gL; competitor: phage S8E1 (same clone), bound phage detected with HRP-anti-M13
# T2 sequence (Q775J3 18-841): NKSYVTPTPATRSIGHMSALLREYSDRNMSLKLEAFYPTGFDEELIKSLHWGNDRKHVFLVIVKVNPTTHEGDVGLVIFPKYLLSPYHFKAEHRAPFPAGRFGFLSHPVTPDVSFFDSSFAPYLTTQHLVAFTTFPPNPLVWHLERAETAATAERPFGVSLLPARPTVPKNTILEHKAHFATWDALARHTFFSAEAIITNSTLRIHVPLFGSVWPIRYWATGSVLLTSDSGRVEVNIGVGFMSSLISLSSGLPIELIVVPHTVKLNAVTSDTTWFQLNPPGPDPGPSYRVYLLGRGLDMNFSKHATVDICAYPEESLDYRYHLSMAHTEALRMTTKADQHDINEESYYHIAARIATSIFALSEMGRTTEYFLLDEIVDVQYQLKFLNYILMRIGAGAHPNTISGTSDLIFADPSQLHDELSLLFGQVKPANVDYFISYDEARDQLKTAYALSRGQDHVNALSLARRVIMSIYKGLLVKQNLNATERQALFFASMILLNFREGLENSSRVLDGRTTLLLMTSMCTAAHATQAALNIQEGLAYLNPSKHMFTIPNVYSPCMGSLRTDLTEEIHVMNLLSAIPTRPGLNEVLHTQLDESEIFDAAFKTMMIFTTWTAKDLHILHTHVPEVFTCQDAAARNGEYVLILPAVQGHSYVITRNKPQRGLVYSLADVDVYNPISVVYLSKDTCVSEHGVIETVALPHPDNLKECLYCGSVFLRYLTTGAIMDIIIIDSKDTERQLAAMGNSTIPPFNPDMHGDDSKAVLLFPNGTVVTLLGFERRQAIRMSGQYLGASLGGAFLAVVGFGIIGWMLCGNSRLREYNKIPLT
# T1 sequence (Q775J3 18-795, tags left off, chain 1 of 2): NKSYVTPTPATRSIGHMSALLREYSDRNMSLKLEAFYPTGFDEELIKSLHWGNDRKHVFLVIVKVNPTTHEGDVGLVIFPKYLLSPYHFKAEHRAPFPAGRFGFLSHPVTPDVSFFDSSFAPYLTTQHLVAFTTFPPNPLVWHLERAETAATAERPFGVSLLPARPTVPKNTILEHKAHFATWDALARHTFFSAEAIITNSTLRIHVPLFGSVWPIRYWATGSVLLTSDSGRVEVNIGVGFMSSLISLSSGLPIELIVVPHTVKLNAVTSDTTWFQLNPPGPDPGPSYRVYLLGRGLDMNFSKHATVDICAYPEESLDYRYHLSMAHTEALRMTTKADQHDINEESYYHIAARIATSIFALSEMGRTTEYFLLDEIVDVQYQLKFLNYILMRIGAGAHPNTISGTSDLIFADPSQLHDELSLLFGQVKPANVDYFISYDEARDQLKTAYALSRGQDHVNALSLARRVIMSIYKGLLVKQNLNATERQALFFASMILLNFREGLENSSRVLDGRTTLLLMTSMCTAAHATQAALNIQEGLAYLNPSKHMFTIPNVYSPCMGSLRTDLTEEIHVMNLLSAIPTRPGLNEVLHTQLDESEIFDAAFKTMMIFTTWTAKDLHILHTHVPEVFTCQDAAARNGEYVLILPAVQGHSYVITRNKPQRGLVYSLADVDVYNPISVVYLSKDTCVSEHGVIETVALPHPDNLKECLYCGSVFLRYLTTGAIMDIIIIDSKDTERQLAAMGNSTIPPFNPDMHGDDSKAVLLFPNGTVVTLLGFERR
# T1 sequence (Q9J3N1 23-160 limits assumed, chain 2 of 2): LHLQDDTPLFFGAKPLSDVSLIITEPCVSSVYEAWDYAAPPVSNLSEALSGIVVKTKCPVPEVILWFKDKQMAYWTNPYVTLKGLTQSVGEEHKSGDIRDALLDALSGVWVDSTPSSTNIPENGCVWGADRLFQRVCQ
Binder,"PRNT50(µg/mL), plaque reduction, antibody added 24 h after infection of MRC5 cells (cell-to-cell transmission) [3] [µg/mL]","PRNT50 (µg/mL), plaque reduction neutralisation of VZV (Oka) on MRC5 cells [5] [µg/mL]","PRNT50(µg/mL), plaque reduction, antibody added 24 h after infection of MRC5 cells (cell-to-cell transmission) [7] [µg/mL]","PRNT50(µg/mL), plaque reduction neutralisation of VZV on MRC5 cells [8] [µg/mL]",further results
"single chain fragment variable S7A10 (phage-displayed) (scFv, also called clone S7A10; phage S7A10) scFv: QVQLKESGPGPVKPSQSLSLTCSVTGYSITSGNYWNWVRQFPGNKLEWMAYISYDGSTYYNPSLKNRISITRDTSKNQFFLKLNSVTTEDTATYYCAEGYYGYWFAYWGQGTLVTVSAGGGGSGGGGSGGGGSENVLTQSPAILSASPGEKVTMTCRASSSVSYMHWYQQKPGSSPKPWIYATSNLASGVPARFSGSGSGTSYSLTISRVEAEDAATYYCQQWSSNPFTFGSGTKLEIK",–,–,–,–,binding result [1]: binds
"single chain fragment variable S8E1 (phage-displayed) (scFv, also called clone S8E1; phage S8E1) scFv: EVKLVESGPGLVKPSQSLSLTCSVTGYSITSGYYWNWIRQFPGNKLEWMGYISYDGSNNYNTSLKNRISITRDTSKNQFFLKLNSVTTEDTATYYCAREDVNYPPYALDYWGQGTSVTVSSGGGGSGGGGSGGGGSSIVMTQTPLSLPVSLGDQASISCRSSQSLVHSNGNTYLHWYLQKPGQSPKLLIYKVSNRFSGVPDRFSGSGSGTDFTLKISRVEAEDLGVYFCSQSTHVPWTFGGGTKLEMK",–,–,–,–,binding result [1]: binds
"single chain fragment variable S8B8 (phage-displayed) (scFv, also called clone S8B8; phage S8B8) scFv: EVKLVESGGGLVQPGGSLKLSCAASGFTFSSYTMSWVRQTPEKRLEWVAFISNGGDNNYYADTVKGRFIISRDNAKNTLYLQMSSLKSEDTAMYYCARHNGNWGFAYWGQGTLVTVSAGGGGSGGGGSGGGGSQNVLTQSPTTMAASPGEKITITCSASSSISSNYLHWYQQKPGFSPKLLIYRTSNLASGVPARFSGSGSGTSYSLTIGTMEAEDVATYYCQQGSSIPLTFGAGTKLEIK",–,–,–,–,binding result [2]: binds
"S7A10-IgG1 (antibody, V domains shown, also called monoclonal antibody S7A10) VH: QVQLKESGPGPVKPSQSLSLTCSVTGYSITSGNYWNWVRQFPGNKLEWMAYISYDGSTYYNPSLKNRISITRDTSKNQFFLKLNSVTTEDTATYYCAEGYYGYWFAYWGQGTLVTVSA VL: ENVLTQSPAILSASPGEKVTMTCRASSSVSYMHWYQQKPGSSPKPWIYATSNLASGVPARFSGSGSGTSYSLTISRVEAEDAATYYCQQWSSNPFTFGSGTKLEIKR",0.93,0.34,–,–,IC50 (read off the curve) [4]: ~2 nM
"S8B8-IgG1 (antibody, V domains shown, also called monoclonal antibody S8B8) VH: EVKLVESGGGLVQPGGSLKLSCAASGFTFSSYTMSWVRQTPEKRLEWVAFISNGGDNNYYADTVKGRFIISRDNAKNTLYLQMSSLKSEDTAMYYCARHNGNWGFAYWGQGTLVTVSA VL: QNVLTQSPTTMAASPGEKITITCSASSSISSNYLHWYQQKPGFSPKLLIYRTSNLASGVPARFSGSGSGTSYSLTIGTMEAEDVATYYCQQGSSIPLTFGAGTKLEIKR",3.21,0.38,–,–,IC50 (read off the curve) [6]: ~0.3 nM
"H4H8-L13C7-IgG1 (antibody, V domains shown) VH: EVQLVESGGGVVQPGRSLRLSCGASGFTFNTYAMHWVRQAPGKGMEWVAVISYGGGNRYYAASVKGRFTISRDNSKNTLFLQLNTLRPEDTAVYYCARARDNHYFFGMDVWGRGTTVTVSS VL: DIQMTQSPSSVSASVGDRVTITCRASQGISSWLAWYQQKPGKAPKLLIYAASSLQSGVPSRFSGSGSGTDFTLTISSLQPEDFATYYCQQATYFPINFGGGTKVEIKR",–,–,> 2,> 0.4,–
"H4H8-L13C1-IgG1 (antibody, V domains shown) VH: EVQLVESGGGVVQPGRSLRLSCGASGFTFNTYAMHWVRQAPGKGMEWVAVISYGGGNRYYAASVKGRFTISRDNSKNTLFLQLNTLRPEDTAVYYCARARDNHYFFGMDVWGRGTTVTVSS VL: DIQMTQSPSSVSASVGDRVTITCRASQGISSWLAWYQQKPGKAPKLLIYAASSLQSGVPSRFSGSGSGTDFTLTISSLQPEDFATYYCQEGFYFPINFGGGTKVEIKR",–,–,0.28,0.016,–
"H4H8-L14H8-IgG1 (antibody, V domains shown) VH: EVQLVESGGGVVQPGRSLRLSCGASGFTFNTYAMHWVRQAPGKGMEWVAVISYGGGNRYYAASVKGRFTISRDNSKNTLFLQLNTLRPEDTAVYYCARARDNHYFFGMDVWGRGTTVTVSS VL: DIQMTQSPSSVSASVGDRVTITCRASQGISSWLAWYQQKPGKAPKLLIYAASSLQSGVPSRFSGSGSGTDFTLTISSLQPEDFATYYCQQSSYFPIAFGGGTKVEIKR",–,–,0.31,0.016,–
"H4H8-L1B7-IgG1 (antibody, V domains shown, also called H4H8-LIB7-IgG1; monoclonal antibody H4H8-L1B7) VH: EVQLVESGGGVVQPGRSLRLSCGASGFTFNTYAMHWVRQAPGKGMEWVAVISYGGGNRYYAASVKGRFTISRDNSKNTLFLQLNTLRPEDTAVYYCARARDNHYFFGMDVWGRGTTVTVSS VL: DIQMTQSPSSVSASVGDRVTITCRASQGISSWLAWYQQKPGKAPKLLIYAASSLQSGVPSRFSGSGSGTDFTLTISSLQPEDFATYYCQQANSFPLTFGGGTKVEIKR",–,–,–,–,IC50 (read off the curve) [9]: ~2 nM
"S8E1-IgG1 (antibody, V domains shown, also called monoclonal antibody S8E1) VH: EVKLVESGPGLVKPSQSLSLTCSVTGYSITSGYYWNWIRQFPGNKLEWMGYISYDGSNNYNTSLKNRISITRDTSKNQFFLKLNSVTTEDTATYYCAREDVNYPPYALDYWGQGTSVTVSS VL: SIVMTQTPLSLPVSLGDQASISCRSSQSLVHSNGNTYLHWYLQKPGQSPKLLIYKVSNRFSGVPDRFSGSGSGTDFTLKISRVEAEDLGVYFCSQSTHVPWTFGGGTKLEMKR",2.82,0.38,–,–,IC50 (read off the curve) [10]: ~0.5 nM
